Results published in patent US20190142860A1, “NUCLEIC ACID BASED TIA-1 INHIBITORS” (Aquinnah Pharmaceuticals, Inc., priority 2015, published 2019).
“Also recorded” adds a separate entry of the source. Residues, ends and D or L forms follow the SMILES beside them. *: point of attachment. Cbz = O=C(OCc1ccccc1)*

What was measured:
[1] = test system: tau-induced TIA1+ SGs in HT22 cells; assay: PKR / PERK inhibitors on tau-mediated SG formation; assay type: cell-based, mouse; conditions: TIA1 ± WT tau, 24 hrs, C16 1 μM, GSK2606414 50 nM
Experimental: The eukaryotic translation initiation factor eIF2α is regulated by phosphorylation. […] SGs were induced by transfection with TIA1±WT tau. After 24 hrs the cells were treated with inhibitors of PKR (C16, 1 μM, Sigma) or PERK (GSK2606414, 50 nM, EMD/Millipore), and then SG number was quantified after 24 hrs.

tau = assay: Tau levels with TIA1 over-expression under proteasome or autophagy inhibition, immunoblot in HT22 cells; assay type: cell-based, mouse; conditions: overnight, MG132 5 μM, chloroquine 50 μM
Experimental: Immunoblots were preformed using gradient PAGE on a 15-well 4-12% Bis-Tris gel (Invitrogen). Blocking was done in 5% milk for lhr at RT. Primary antibody incubation was at 4° C. overnight with 1:7,500 mouse monoclonal Tau13, 1:500 mouse monoclonal PHF1, 1:500 goat polyclonal TIA1 (Santa Cruz), 1:500 mouse monoclonal synaptophysin (Santa Cruz), 1:1,000 mouse monoclonal PSD-95 (NeuroMab), 1:1,000 rabbit polyclonal caspase-3 or cleaved caspase 3 (Cell Signaling), or 1:10,000 mouse monoclonal actin (Millipore) in PBS. Secondary antibody was incubated in 5% milk for 1 hr at RT. Developing was done using SuperSignal West Pico Substrate (Thermo).

[2] = test system: granules positive for TIA1 and phospho-tau (P-S396/404, PHF1); assay: Tau kinase inhibitor study: TIA1+ SGs and PHF1+ tau granules; assay type: cell-based, mouse; conditions: HT22 cells, TIA1 and WT tau, 24 hrs; for formation of granules positive for TIA1 and phospho-tau (SGs and tau granules): XXVI 20 μM, CDK2/5 inhibitor 5 μM, SB203580 20 μM, 39621 20 μM, PP2 20 nM
[3] = test system: primary hippocampal neurons; assay: Dendrite length of primary hippocampal neurons (MAP2, NeuronJ); assay type: cell-based, mouse; conditions: Tau−/− and TIA1−/− neurons, WT or P301L tau ± TIA1, DIV21; puromycin 5 μg/ml, cycloheximide 10 μg/ml
From the text: SG density and dendritic processes were quantified using Image J (using ImageJ plug-ins NeuronJ, tracing MAP2 positive processes for dendritic measurements). Granule movement and formation was quantified using Bitplane Imaris Track software (Imaris).
Measurements of dendritic processes were done using ImageJ plug-ins NeuronJ. Using the software to trace MAP2 positive processes of individual cells yields a pixel measurement that can then be back calculated to micrometers using the microscope scaling parameters.

[4] = test system: tau granules in primary hippocampal neurons; assay: Tau granules in dendrites of primary tau−/− hippocampal neurons; assay type: cell-based, mouse; conditions: WT or P301L tau ± TIA1, treated at DIV21, cycloheximide 10 μg/ml
Experimental: Primary hippocampal cultures were generated from P0 pups from C57Bl/6 WT, TIA1 −/−, or tau −/− mice. The hippocampus was dissected out in Hank's Balanced Salt Solution buffered with HEPES and PenStrep, and dissociated with 0.125% trypsin for 15 min at 37° C., followed by trituration. Dissociated cells were plated on plates of coverslips pre-coated with Poly-D lysine (100 μg/mL, Sigma). Neurons were grown for 21 days in Neurobasal medium supplemented with B-27 (Invitrogen)
At DIV3 neurons were transduced with AAV9-TIA1-mRFP or AAV9-mRFP virus (MOI 20). At DIV7 neurons were transduced with AAV1-WT tau-V5 or AAV1-P301L tau-V5 virus (MOI 20). Neurons were fixed for immunolabeling and confocal microscopy in 4% PFA, or lysed in via sonication in PBS with protease and phosphatase inhibitors.
Granule count neurons: Quantifications of granule counts and area in primary neurons was done in ImageJ by using a free-hand tool to outline the neuron, thresholding the image, creating a mask over the nucleus, and using the particle analyzer tool.

[5] = test system: stress granules (SGs) in HT22 cells; assay: Stress granule / tau granule formation in HT22 cells expressing tau and TIA1; assay type: cell-based, mouse; conditions: for formation of tau granules: neuronal cell lines
Experimental: HT22 cells were transfected using Lipofectamine (Invitrogen), incubated 24 hours, and treated after 24 hrs (25 uM salubrinal, 5 μg/ml puromycin, 10 μg/ml cycloheximide). At 48 hours the cells were fixed in 4% PFA.
HT22 cells were maintained in DMEM (4.5 g glucose/L) media supplemented with 10% fetal bovine serum, lx PenStrep (Invitrogen), lx L-Glutamine (Invitrogen), and 1× non-essential amino acids. Cells were passaged twice a week 1:5. Cells were seeded on 18 mm poly-D-lysine coated coverslips in 12-well plates (75,000/coverslip) one day prior to transfection in […] media (DMEM, 10% FBS). Cells were transfected at 1:2 ratio DNA:Lipofectamine (Invitrogen), delivering 2 μg total DNA per well. Lipofectamine in OptiMEM (Invitrogen) is incubated for 5 min prior to the addition of the DNA/OptiMEM. The transfection mixture is then allowed to incubate for 20 min at room temperature prior to being added to the cells. 500 μL of media is removed and 500 μL of transfection mixture is added dropwise to each well. Cells were incubated 24 hours, after which the addition of 25 μM salubrinal may be added to half of the plates and allowed to incubate for 24 hours. At 48 hours post-transfection, the cells were fixed in 4% PFA and stored in PBS.
Granule count cells: SG density was quantified using Image J software by calculating the number of puncta […] per 63× frame controlled for the number of cells. This was done by thresholding images, and using the analyze particle functionality. Quantifications of granule counts and area in primary neurons was done in ImageJ by using a free-hand tool to outline the neuron, thresholding the image, creating a mask over the nucleus, and using the particle analyzer tool.

caspase-3 = assay: Caspase cleavage (Caspase-Glo 3/7) in neurons co-transduced with TIA1 and tau; assay type: cell-based, mouse; conditions: salubrinal 25 μM
Experimental: Caspase 3/7 cleavage was quantified with the Caspase-Glo 3/7 Assay kit, Promega. Apoptosis detected DNA fragmentation (TiterTACS Colorimetric Apoptosis Detection kit, Trevigen).
Caspase 3/7 cleavage was quantified with the Caspase-Glo 3/7 Assay kit, Promega. Apoptosis was analyzed by quantifying DNA fragmentation (TiterTACS Colorimetric Apoptosis Detection kit, Trevigen).

[6] = molecular target: Nucleolysin TIA-1 (endogenous mouse TIA1) (mouse) (UniProt P52912); assay: TIA1 IP-MS, tau KO 2 cortex
Chain of UniProt P52912 (P52912 whole entry): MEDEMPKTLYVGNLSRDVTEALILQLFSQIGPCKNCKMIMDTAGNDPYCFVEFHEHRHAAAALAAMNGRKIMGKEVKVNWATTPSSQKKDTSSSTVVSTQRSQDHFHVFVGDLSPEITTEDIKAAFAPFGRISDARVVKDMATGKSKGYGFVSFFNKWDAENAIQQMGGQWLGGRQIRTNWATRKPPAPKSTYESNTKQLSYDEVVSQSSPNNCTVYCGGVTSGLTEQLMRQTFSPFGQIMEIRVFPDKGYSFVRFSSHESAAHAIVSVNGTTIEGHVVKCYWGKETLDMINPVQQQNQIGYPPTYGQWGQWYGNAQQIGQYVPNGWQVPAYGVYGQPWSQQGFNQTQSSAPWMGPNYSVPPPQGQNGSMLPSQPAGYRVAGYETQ

[7] = molecular target: Nucleolysin TIA-1 (endogenous mouse TIA1) (mouse) (UniProt P52912); assay: TIA1 IP-MS, WT1 cortex
[8] = molecular target: Nucleolysin TIA-1 (endogenous mouse TIA1) (mouse) (UniProt P52912); assay: TIA1 IP-MS, WT2 cortex
[9] = molecular target: Nucleolysin TIA-1 (endogenous mouse TIA1) (mouse) (UniProt P52912); assay: TIA1 IP-MS, tau KO 3 cortex
[10] = molecular target: Nucleolysin TIA-1 (endogenous mouse TIA1) (mouse) (UniProt P52912); assay: TIA1 IP-MS, WT3 cortex
[11] = molecular target: Nucleolysin TIA-1 (endogenous mouse TIA1) (mouse) (UniProt P52912); assay: TIA1 IP-MS, tau KO 1 cortex
[12] = molecular target: microtubules (mouse brain); assay: microtubule pelleting in RAB buffer / immunoblot, mouse cortex

| Compound | total ion current (normalized to TIA1 = 1000) [6] | total ion current (normalized to TIA1 = 1000) [7] | total ion current (normalized to TIA1 = 1000) [8] | total ion current (normalized to TIA1 = 1000) [9] | total ion current (normalized to TIA1 = 1000) [10] | total ion current (normalized to TIA1 = 1000) [11] | also measured |
| --- | --- | --- | --- | --- | --- | --- | --- |
| O=C1Nc2ccc3ncsc3c2/C1=C/c1cnc[nH]1 [C16] |  |  |  |  |  |  | tau-mediated SG formation (SG number) [1]: strongly inhibited; also recorded: Inhibition |
| Cn1cc(-c2ccc3c(c2)CCN3C(=O)Cc2cccc(C(F)(F)F)c2)c2c(N)ncnc21 [GSK2606414] |  |  |  |  |  |  | tau-mediated SG formation (SG number) [1]: strongly inhibited; also recorded: Inhibition |
| CC(C)C[C@@H](C=O)NC(=O)[C@H](CC(C)C)NC(=O)[C@H](CC(C)C)NC(=O)OCc1ccccc1 [MG132] (Cbz-Leu-Leu-Leu-aldehyde) |  |  |  |  |  |  | decreases in tau associated with TIA1 over-expression (tau): neither MG132 nor chloroquine prevented decreases in tau |
| CC(C)(C)n1nc(-c2ccc(Cl)cc2)c2c(N)ncnc21 [PP2] |  |  |  |  |  |  | formation of granules positive for TIA1 and phospho-tau (SGs and tau granules) [2]: inhibition of SGs and tau granules |
| C[S+]([O-])c1ccc(-c2nc(-c3ccncc3)c(-c3ccc(F)cc3)[nH]2)cc1 (centres unmarked) [SB203580] |  |  |  |  |  |  | SG inhibition, comparison among the kinase inhibitors [2]: strongest SG inhibition; formation of granules positive for TIA1 and phospho-tau (SGs and tau granules) [2]: Inhibition |
| Cn1cc(-c2[nH][nH]c(=O)c2-c2cn(C)c3ccccc23)c2ccccc21 [XXVI] |  |  |  |  |  |  | formation of granules positive for TIA1 and phospho-tau (SGs and tau granules) [2]: inhibition of SGs and tau granules |
| CCN(CC)CCCC(C)Nc1ccnc2cc(Cl)ccc12 (centres unmarked) [chloroquine] |  |  |  |  |  |  | decreases in tau associated with TIA1 over-expression (tau): neither MG132 nor chloroquine prevented decreases in tau |
| C[C@@H]1C[C@@H]([C@H](O)CC2CC(=O)NC(=O)C2)C(=O)[C@@H](C)C1 [cycloheximide] |  |  |  |  |  |  | dendrite length [3]: did not affect dendrite length; tau granules in dendritic processes (Tau13, MAP2 imaging) [4]: spread diffusely with only small, less defined granules apparent; formation of tau/SG complexes (tau+ SGs) ([5]; HT22 cells over-expressing TIA1 and WT or P301L tau, arsenite, cycloheximide 10 μg/ml): prevented formation of the tau/SG complexes; also recorded: reversed; formation of tau granules [5]: prevented formation of tau granules |
| COc1ccc(C[C@H](N)C(=O)N[C@H]2[C@@H](O)[C@H](n3cnc4c(N(C)C)ncnc43)O[C@@H]2CO)cc1 [puromycin] |  |  |  |  |  |  | dendrite length [3]: potentiated the decrease in dendritic length; tau granules in dendritic processes (Tau13, MAP2 imaging) [4]: larger and more abundant tau granules; formation of tau granules [5]: stimulated formation of tau granules |
| O=C(/C=C/c1ccccc1)NC(NC(=S)Nc1cccc2cccnc12)C(Cl)(Cl)Cl (centres unmarked) [salubrinal] |  |  |  |  |  |  | levels of cleaved caspase-3 (caspase cleavage) (caspase-3): potentiated; SG levels ([5]; HT22 cells expressing tau, salubrinal 25 uM): enhanced SG levels; number of SGs ([5]; HT22 cells, P301L, P301L PMIM or P301L PNULL tau ± TIA1-RFP, salubrinal 25 μM): increased the number of SGs in all conditions |
| Tubulin polymerization-promoting protein (from UniProt Q7TQD2 1-218) | 40.4 | 0 | 299 | 0 | 220 | 0 |  |
| U1 small nuclear ribonucleoprotein 70 kDa (from UniProt Q62376 2-448) | 0 | 6.22 | 0 | 0 | 0 | 0 |  |
| Ubiquitin thioesterase OTUB1 (from UniProt Q7TQI3 2-271) | 16.9 | 0 | 80.5 | 0 | 45.6 | 0 |  |
| V-type proton ATPase catalytic subunit A (from UniProt P50516 1-617) | 214 | 0 | 319 | 0 | 71.9 | 0 |  |
| V-type proton ATPase subunit H (from UniProt Q8BVE3 1-483) | 30.3 | 0 | 101 | 0 | 57.6 | 0 |  |
| Vesicular glutamate transporter 1 (from UniProt Q3TXX4 1-560) | 64.5 | 0 | 141 | 0 | 0 | 130 |  |
| alkylbenzyldimethyammonium chloride |  |  |  |  |  |  | formation of granules positive for TIA1 and phospho-tau (SGs and tau granules) [2]: inhibition of SGs and tau granules |
| human 1N4R tau with the P301S mutation (PS19 transgene) (from UniProt P10636 2-412) |  |  |  |  |  |  | fold increase in the ratio of MT-bound (P) to unbound (S) tau, P301S TIA1+/- against P301S TIA1+/+ [12]: 3 fold |
